Target: CD20 (human) (UniProt P11836)
Test: cell-based or functional assay

CD20 (human), sequence (P11836 whole entry): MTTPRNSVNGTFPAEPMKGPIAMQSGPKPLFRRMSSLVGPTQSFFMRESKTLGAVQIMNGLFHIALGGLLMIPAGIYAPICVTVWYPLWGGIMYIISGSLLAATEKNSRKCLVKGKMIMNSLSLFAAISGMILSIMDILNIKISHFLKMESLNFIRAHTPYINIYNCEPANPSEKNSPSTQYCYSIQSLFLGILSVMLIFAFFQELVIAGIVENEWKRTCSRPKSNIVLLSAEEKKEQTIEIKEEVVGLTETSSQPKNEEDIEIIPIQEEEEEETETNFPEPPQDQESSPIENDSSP

20-Rap (antibody)
in vitro cytotoxicity EC50, Daudi and Ramos cells: 0.0001 µM | in vitro cytotoxicity EC50, Jeko-1 cells: 20 µM
